A short description of the data set: soluble on expression in E. coli; label from the status in PepcDB or PDB records.
Take “MNRLLQQSVSRGPLAVRASSTITTKPPTPNQITKNNAQFDKVTHTGQAWDQSDYRLQRFDISKKSVNPNVAMHLIDQRPPEDCGDKRVVFCDGGHPALGHPKVYINLDKPGVHACGYCGNRFYNSHATKAEDMKIQHLNC”: the “soluble on expression in E. coli” value was “not soluble”. Under “MAHHHHHHMSDHEMYDNIDAGASQTYPVQAGAIKKNGHVMLKEHPCKVVDYSTSKTGKHGHAKAHIVGIDIFTGRKYEDICPTSHNMDVPVVKRTELQLIDITEDGFVSLLYDNGDTKDDLSLPKDTEGNLDEVAKQIRNLFDNGKSVLVSVLSACGQEKIIAAKELSS” stands “soluble”; under “MFKNEDAKATGTSEMAPALVAAFGGKENITNLDACITRLRVSVADVSKVDQAGLKKLGAAGVVVAGSGVQAIFGTKSDNLKTEMDEYIRNFGSRSHHHHHH”, “soluble”; under “MGSDKIHHHHHHMIRSLWTAKTGLESQQVKLDVISNNLSNVSTNGFKRSRPVFEDLLYQNVRQPGAQASAVDTLPSGLQVGTGVRPVATERLHTQGGLQNTDNSKDLAINGQGFFAVQMPDGTSAYTRDGSFQIDENGQMVTAGGYPLDPPIVIPENALSVSISQDGVVSVTQPGDTAAQEVGQLTLSKFINPAGLQSMGENLYQETDASGPRNDLIPGMEGAGRLYQGYVETSNVNVVEEMVSMIETQRAYEINSKAVETSDQMLSRLTQL”, “not soluble”. For “LDSLNELAVFVDTELKIIWANKAALEYMNMGLEKAIGVCLKVAPGISGPLVEHLNLEEIFTTGEKKSGEYTAQDGRVWFAQAIPVPDEQGKIIGILQTCRDVT”, the “soluble on expression in E. coli” value was “not soluble”. Under “QGDIGIDNLRNFYTKKDFVDLKDVKDNDTPIANQLQFSNESYDLISESKDFNKFSNFKGKKLDVFGISYNGQSNTKYIYGGVTATNEYLDKSRNIPINIWINGNHKTISTNKVSTNKKFVTAQEIDVKLRKYLQEEYNIYGHNGTKKGEEYGHKSKFYSGFNIGKVTFHLNNNDTFSYDLFYTGDDGLPKSFLKIYEDNKTVESEKFHLDVDISYKA” stands “soluble”; under “AHHHHHHGSAGVRLVDVWKVFGEVTAVRELSLEVKDGEFMILLGPSGCGKTTTLRMIAGLEEPSRGQIYIGDRLVADPEKGIFVPPKDRDIAMVFQSYALYPHMTVYDNIAFPLKLRKVPRQEIDQRVREVAELLGLTELLNRKPRELSGGQRQRVALGRAIVRKPQVFLMDEPLSNLDAKLRVRMRAELKKLQRQLGVTTIYVTHDQVEAMTMGDRIAVMNGGVLQQVGSPDEVYDKPANTFVAGFIGSPPMNFLDAIVTEDGFVDFGEFRLKLLPDQFEVLGELGYVGREVIFGIRPEDLYDAMFARVRVPGENLVRAVVEIVENLGSERIVHLRVGGVTFVGAFRSESRVREGVEVDVVFDMKKIHIFDKTTGKAIF”, “soluble”; under “MESGVPLVVVLRDVLEYVDDTSEAQYAINTDGVLVNGDSVGDVNRPIGMFDILAFPDRDEYYRVFPDEGGRLGLTEIDADAAGSKLNKVTDKTTVSGGRTQLNFHDGSNLALDEDAYAGGDSVVVDTDTNEIVAHFQYEEGALVTAVAGQHAGDIGEIAEINVQPGSASNTVRVDDENGGFETIAEYVVVIDENFLEHHHHHH”, “soluble”. The entry for “MAHHHHHHMLHGNWKYLRQGGRQWMEKQARDPFVLEARRRGYVARSAFKLLEMDDKFGLFARNHTRVVVDIGCSPGGWLQVARERCGDRCALFGVDLLHVSPTVTGAVCIQGDFTDMAIQQQLLSRMENVHANGLVDVVMSDMCLNRGSGGTDDRQKQMQLNMEALAFATSQLRTGGNFVCKVLGTPTAFEELRGELQRWFVRSSLCKPFSSRRGSDEAFMVCLAKRETPRPRGCNIAEGETRDFGLDDWPGFLRRPRQKR” is “not soluble”; for “MVQEIIVDSGDIEFLTTPKEYKQQLLSLIECARQRIFITALYLQDDEAGREILHALYQAKANFPTIEINIFVDFNRGQRGLIGEKASLGNRALYLKLAHEYPHTVNIYGVAVKRKEVFGVLHLKGMVFDEKLFYTGASINDIYLHQGERLEHHHHHH” it is “not soluble”.

“MREKELKHIENLLLLKVKKEKIEETDKIKEYLKRFEDERRFDGIKESTIKSDLDRLRVFLDYCINYLGKNPEELKTSDFVKFFNYLDTVRKVSKSSQRKYFLLLKVFYRVLRMYNVIQEFVEESKDRKRFARIEIQHYDAVDAEMLNMILKKIIESGSRTRIRDALIIRLLWDTGCRVSEVLNLKYKDCDLDNGIFKIRNTKTHEERTVVCSSDTLELLRNYVQFNVRQGSDDYLFQNSQGGRVRKEWISEVFRKAVNELKEEGKIPKNRRIVIHSIRHGRAVDLLNKGVPIDIVKEYLGHKSMNTTLIYAHSKERAESLEFIKKLLRIQ”: the “soluble on expression in E. coli” value is reported as “not soluble”.

For “MSKFSLKLGSKTLKKNISKKTKKKNSLQKANLFDWDDAETASLSHKPQSKIKIQSIDKFDLDEESSSKKKLVIKLSENADTKKNDAPLVEYVTEKEYNEVPVEEFGDALLRGMGWESDSEQDSKGDKTQSRNKDVSNVSQIHPDGLGIGAKLNKAINVEEASFMPVVKIDKITGTKVDDDKKNKS”, the “soluble on expression in E. coli” value is reported as “soluble”. “MVRIDAKGLHYKKLNDLIWEAVENGEEEIVLDNVCGQRYIGAGIRKKVKIEINGVPGNDLGVFMDGPEIIVNGNAQDGVGNTMNAGKIVVHGHAGDIIGYAMRGGHIYIKRNAGYRVGIHMKAYKENYPVVVIGGFARDFLGEYMAGGLLIVLGLEKDEDGNIAGNYVGTGMHGGEIFLRGTVEEHKLGKEVKIFQPTEEDINRIKPYVEEFCRLFDYDSEEILNEEFIILKPYTHRPYGRLYAY”: the “soluble on expression in E. coli” value is “not soluble”.

For the sequence “MGSDKIHHHHHHMTVQQFIKKLVRLVELERNAEINAMLDEMKRLSGEEREKKGRAVLGLTGKFIGEELGYFLVRFGRRKKIDTEIGVGDLVLISKGNPLKSDYTGTVVEKGERFITVAVDRLPSWKLKNVRIDLFASDITFRRQIENLMTLSSEGKKALEFLLGKRKPEESFEEEFTPFDEGLNESQREAVSLALGSSDFFLIHGPFGTGKTRTLVEYIRQEVARGKKILVTAESNLAVDNLVERLWGKVSLVRIGHPSRVSSHLKESTLAHQIETSSEYEKVKKMKEELAKLIKKRDSFTKPSPQWRRGLSDKKILEYAEKNWSARGVSKEKIKEMAEWIKLNSQIQDIRDLIERKEEIIASRIVREAQVVLSTNSSAALEILSGIVFDVVVVDEASQATIPSILIPISKGKKFVLAGDHKQLPPTILSEDAKDLSRTLFEELITRYPEKSSLLDTQYRMNELLMEFPSEEFYDGKLKAAEKVRNITLFDLGVEIPNFGKFWDVVLSPKNVLVFIDTKNRSDRFERQRKDSPSRENPLEAQIVKEVVEKLLSMGVKEDWIGIITPYDDQVNLIRELIEAKVEVHSVDGFQGREKEVIIISFVRSNKNGEIGFLEDLRRLNVSLTRAKRKLIATGDSSTLSVHPTYRRFVEFVKKKGTYVIF”, the “soluble on expression in E. coli” value is on record as “not soluble”. In the case of “VCQILEVDRSTYHYKSRRPGQASLESKIKEICQTRVRYGYRRVHVLLRREGWLINQKKTRRIYRELGLQLRNKTPKRRVRAKLRDDRRDATHPNETWAMDFVHDQLATGNKIRVLTVVDLFSRYSPVLDPRFSYRAENVVQTLEHTWAAVGYPKTIRVDQGSEFISRELDLWAYSNGVTLDFSRPGKPTDNAFIEAFNGRFRAECLNTHWFLTLDDARSKLEDWRRYYNEQRPHGAIGNRPPITLHNRDSDPSSPS”, the “soluble on expression in E. coli” value is recorded as “soluble”. Take “MHNQAPIQRRKSTRIYVGNVPIGDGAPIAVQSMTNTRTTDVEATVNQIKALERVGADIVRVSVPTMDAAEAFKLIKQQVNVPLVADIHFDYRIALKVAEYGVDCLRINPGNIGNEERIRMVVDCARDKNIPIRIGVNAGSLEKDLQEKYGEPTPQALLESAMRHVDHLDRLNFDQFKVSVKASDVFLAVESYRLLAKQIDQPLHLGITEAGGARSGAVKSAIGLGLLLSEGIGDTLRVSLAADPVEEIKVGFDILKSLRIRSRGINFIACPTCSRQEFDVIGTVNALEQRLEDIITPMDVSIIGCVVNGPGEALVSTLGVTGGNKKSGLYEDGVRKDRLDNNDMIDQLEARIRAKASQLDEARRIDVQQVEK”: the “soluble on expression in E. coli” value is on record as “soluble”.

On to “EFVINPNGKSEVCILHEYMQRVLKVRPVYNFFECENPSEPFGASVTIDGVTYGSGTASSKKLAKNKAARATLEILIPDFVKQTSE”, for which the “soluble on expression in E. coli” value is “soluble”.

Values taken from the DeepSol protein solubility set.
